Laboratory results as given in patent US10556936B2, “Immunogenic proteins and fragments thereof from allergenic mites” (ALK-ABELLÓ A/S, priority 2016, dated 2020).

B1: A012: house dust mite protein; SEQ ID NO: 22 (Der p), 38 (Der f), 310 (Blo t) (protein)
chain: QSRDRNDKPYRIVCYWGTWAFYRPASGKFQAENVNPNLCTHIMYGFAKLQNNKIALYDPDLDDGDEDWNSGLQWGHGMIRRMVNLRTYNPHLTTMISLGGWNEGSDKYSIMVRDPASRKIFIQSVLHLLAEFDLDGLDFDWEYPAMQASGDSDRKPGRAEDKEDFVTLLRELHEAFQPHGYVLSSAVSAGKPTIDRAYNIPEVSKYLDFINLMSYDYHGGWESHTGHNAPLNSYKNANELDKEFTVTYSVEYWLNHGVDPKKLVLGIPLYGRTFTLAGSEHGIGAPTIGKGGESGTITRTIGMLGYNEICTMIKQGWQLYRDEIERIPYAVHANQWIGYDDRESVNEKLNLLMAKHLGGAMVWSIDTDDFVGNCVGVKYPLLRSISKKLNNVDGPDPDIKRYHYHTSTAKPHTDGTTSTHHDHKTTTTKHHKTTQPHHKTTQPHHTQTITTTTERPHGKFQCHQAGFFADPENPRKFHQCVDFGGHLKDYEFMCGEGTHYDEKLHICVR
B2: A013: house dust mite protein; SEQ ID NO: 36 (Der f), 37 (Der p), 311 (Blo t) (protein)
chain: DTPANCTYEDIKGLWLFEETEPIKDRWEKCPEHQQQREKYSKKIFIRLDFPNVAVDKFGNIGEWTMIYNQGFEVKINYRKYFAFSAYERKSENNVLSYCHKTQPGWSHDVLGNNWACYVGHKVNNWNDDDVSKTTTVGAEKFPVKQHSERELYLQNINVEHILSQKHIDHLNSQQKSWKAIVYPDLQSKSIEHLIQMAGGRKSRIINRPKPLRATEQQKQLARSLPESFDWRNLNGIDYVSPVRDQGKCGSCYTFASMAMLESRIRIQTNNTFKPIFSTQEVVDCSEYSQGCDGGFSYLIAGKYAQDFGVIDESCYPYKGVTGKCQNQQNFNQTNEKCKQRTYTIDYKYVGGYFGACNEEAMQIELVQNGPIAVGFEVYGDFFGYSEGIYSHQPSNESNDQHQQIKAEFNPFEMTNHAVLIVGYGKDKKTGEKYWIVKNSWGKQWGMDGYFWMRRGTDECAIESLAMAATPIPN
B3: A014: house dust mite protein; SEQ ID NO: 32 (Der f), 33 (Der p) (protein)
chain: IEQVHIALGSNETEIIVTWTEPHKHDDKTSDAVVYYGQAKSSFDQKVKAISEYFKDDKTKYTTYRALLTGLLPGTEYHYRIQMDDLESSIFEFKTLKTGEENWLPRFAIYGDLGYVNEQSLPYLKKDVEQNLFDVIFHIGDFAYDLNDEHGKVGHHFMRSIEPVASKVAYMTCPGNHERHDNFSHYDSRFSMIGDRSQPIHSDKLNKRLNNHFHSMTIGPATIILFSTEYYYYTKYGWQQIEHQYRWLEQELKRANENRQKHPWIIVMGHRPLYCLKMGDDSCDHQTMERKEIRQGIRMHDEGERQYGLEDLFFKYGVDIQFYGHEHFYARLFPIYKYKMYNGTKSKNPYDHPGAPIHITTGSAGNKELHPEFNHLNDWVAEHFYDYGYTRLMFEDKYRIRLQQISDDQHGKVLDEIEIVKSSPQPHWMNVEHH
B4: A016: house dust mite protein; SEQ ID NO: 28 (Der f), 29 (Der p) (protein)
chain: MVKIGINGFGRIGRLVLRAAIKKGVEVAAINDPFLDVKYMVYMFKFDSTHGRYQGEVKEEGGLLVVDGQKIQVFQERNPAEIPWGKVGADYVVESTGVFTTIEKAKAHLAGGAKKVIISAPSADAPMYVMGVNHDKYDPKQQIISNASCTTNCLAPLAKVINDKFGIENGLMTTVHAITATQKTVDGPSGKLWRDGRGAGQNIIPASTGAAKAVGKVIPELNGKLTGMALRVPVPDVSVVDLTVTLKNPASYDEIKAAVKAAAESDHWKGILEYTDEEVVSSDFISDTHSSIFDAKAGIALTPTFVKLIAWYDNEFGYSNRVVDLIKYVASK

Legend:
Assay type in all cases: cell-based, human
[1] = system: T cell lines obtained from HDM allergic individuals and non-allergics; test: In vitro T cell proliferation test in T cell lines (Example 3); details: 0.5 or 2 ug/ml, 72 h; for % responders of in-vitro T cell proliferation test, Allergic: T cell lines from HDM allergic individuals (n=30); for % responders of in-vitro T cell proliferation test, Non-allergics: T cell lines from non-allergics (n=8)
Source text: (§1) This example relates to the further testing of immunogenicity of the proteins identified in Example 1. Their ability to react with IgE antibodies in HDM allergic individuals, to stimulate in vitro T cell proliferation of HDM allergic individuals and non-allergics, and to stimulate ex vivo cytokine production of HDM allergic individuals and non-allergics. The following tests were used: • Basophil Activation Test (BAT) was used as a predictive in vitro assay for indication of safety/immediate hypersensitivity reactions. BAT test was carried out using blood from HDM allergic individuals (n=14), and by use of different concentrations of test proteins or the major house dust mite allergens (Der p 1, Der f 1, Der p 2 or Der f 2, e.g. a concentration of 1, 10, 100 or 1000 ng/ml. • In vitro T cell reactivity determined in T cell lines obtained from HDM allergic individuals (n=30) and non-allergics (n=8): Determined by establishment of HDM specific T-cell lines according to standard methods. In short, PMBCs from HDM allergic donors were cultured for 3 weeks in the presence of house dust mite allergen extract. The responses to proteins at a concentration of 0.5 ug/ml or 2 ug/ml of the test protein or the major house dust mite allergens (Der p 1, Der f 1, Der p 2 or Der f 2) were assessed by proliferation in a standard 72 h T cell proliferation assay, as described in Henmar H et al., Clin Exp Immunol 2008; 153(3):316-23. […]. • Ex vivo stimulation of PBMC cells obtained from mite allergic patients (n=16) and non-allergics (n=6): Determined by measuring the production of the cytokines; IFN-gamma, IL-9, IL-10, IL-17 and IL-31 following stimulation with test protein in concentration up to 10 ug/ml. Freshly isolated PBMC 5×10^6/ml were cultured with a test protein for 5 days and cell supernatant were harvested and stored at −80° C. Cytokines of the supernatants were measured using ProcartaPlex Multiplex Immunoassays with MAGPIX Multiplex Reader according manufactory protocol.

[2] = system: PBMC cells obtained from mite allergic patients and non-allergics; test: Ex vivo stimulation of PBMC: cytokine production (IFN-gamma, IL-9, IL-10, IL-17, IL-31)
Source text: as §1

[3] = system: basophils in whole blood from HDM allergic donors; test: Basophil Activation Test (BAT); details: blood from HDM allergic individuals (n=14)
Procedure: Basophil Activation Test (BAT) was used as a predictive in vitro assay for indication of safety/immediate hypersensitivity reactions. The BAT assay is a widely used diagnostic test that is also used for evaluation of allergenicity of allergen derived components. In short: whole blood from HDM allergic donors was stimulated for 1 h with the proteins, and the increased expression of activation markers on the surface of basophils were measured by flow cytometry. The BAT test was carried out using different concentrations of the proteins and the allergens Der p 2 and Der p 1 was used as controls and tested in the same concentration rates.
as §1

Molecule | % responders of in-vitro T cell proliferation test, Allergic [1] | % responders of in-vitro T cell proliferation test, Non-allergics [1] | % HDM allergic individuals with cytokine production in ex-vivo T cell assay IL-5 [2] | % HDM allergic individuals with cytokine production in ex-vivo T cell assay IL-9 [2] | % HDM allergic individuals with cytokine production in ex-vivo T cell assay IL-10 [2] | % HDM allergic individuals with cytokine production in ex-vivo T cell assay IL-13 [2] | % HDM allergic individuals with cytokine production in ex-vivo T cell assay IL-17 [2] | % HDM allergic individuals with cytokine production in ex-vivo T cell assay IL-31 [2] | % HDM allergic individuals with cytokine production in ex-vivo T cell assay INF-g [2] | % non-allergic individuals with cytokine production in ex-vivo T cell assay IL-5 [2] | % non-allergic individuals with cytokine production in ex-vivo T cell assay IL-9 [2] | % non-allergic individuals with cytokine production in ex-vivo T cell assay IL-10 [2] | % non-allergic individuals with cytokine production in ex-vivo T cell assay IL-13 [2] | % non-allergic individuals with cytokine production in ex-vivo T cell assay IL-17 [2] | % non-allergic individuals with cytokine production in ex-vivo T cell assay IL-31 [2] | % non-allergic individuals with cytokine production in ex-vivo T cell assay INF-g [2] | # of individuals of 14 with positive BAT test ([3]; 1 ng/ml) | # of individuals of 14 with positive BAT test ([3]; 10 ng/ml) | # of individuals of 14 with positive BAT test ([3]; 100 ng/ml) | # of individuals of 14 with positive BAT test ([3]; 1000 ng/ml)
B1 | 39% | 13% | 69% | 25% | 19% | 44% | 19% | 0% | 0% | 0% | 0% | 67% | 0% | 33% | 0% | 17% | 0 | 0 | 0 | 0
B2 | 18% | 13% | 50% | 25% | 38% | 38% | 6% | 0% | 0% | 0% | 0% | 0% | 0% | 0% | 0% | 0% | 0 | 0 | 0 | 0
B3 | 43% | 0% | 6% | 0% | 25% | 6% | 31% | 0% | 13% | 0% | 0% | 33% | 0% | 33% | 0% | 33% | 0 | 0 | 0 | 0
B4 | 7% | 0% | 6% | 0% | 25% | 13% | 13% | 0% | 6% | 0% | 0% | 0% | 0% | 17% | 0% | 0% | 0 | 0 | 0 | 0
